Experimental data from US20250289871A1.

Experiments:
Assay in all cases: cell-based or functional assay
[1] = molecular target: SARS-CoV-2 BA.1.1 spike protein (authentic virus) (SARS-CoV-2) (UniProt P0DTC2)
[2] = molecular target: SARS-CoV-2 BA.2.12.1 spike protein (authentic virus) (SARS-CoV-2) (UniProt P0DTC2)
[3] = molecular target: SARS-CoV-2 BA.2 spike protein (authentic virus) (SARS-CoV-2) (UniProt P0DTC2)
[4] = molecular target: SARS-CoV-2 Alpha spike protein (authentic virus) (SARS-CoV-2) (UniProt P0DTC2)
[5] = molecular target: SARS-CoV-2 BA.5 spike protein (authentic virus) (SARS-CoV-2) (UniProt P0DTC2)
[6] = molecular target: SARS-CoV-2 BA.1 spike protein (authentic virus) (SARS-CoV-2) (UniProt P0DTC2)

Substance: cilgavimab (AZD1061) (antibody)
- Authentic Virus Neutralization IC50 [1]: > 10 µg/mL
- Authentic Virus Neutralization IC50 [2]: 0.029 µg/mL
- Authentic Virus Neutralization IC50 [3]: 0.021 µg/mL
- Authentic Virus Neutralization IC50 [4]: 0.006 µg/mL
- Authentic Virus Neutralization IC50 [5]: 0.131 µg/mL
- Authentic Virus Neutralization IC50 [6]: 3.78 µg/mL
